Consider ten molecules from patent US20250269018A1, “COMBINED CANCER THERAPY WITH AN EPITHELIAL CELL ADHESION MOLECULE (EPCAM) INHIBITOR AND A HEPATOCYTE GROWTH FACTOR RECEPTOR (HGFR) INHIBITOR” (ACADEMIA SINICA, priority 2021, published 2025).

To fix the notation:
B1: endogenous EpCAM (HCT116 and HT29 cells) (other)
chain: QEECVCENYKLAVNCFVNNNRQCQCTSVGAQNTVICSKLAAKCLVMKAEMNGSKLGRRAKPEGALQNNDGLYDPDCDESGLFKAKQCNGTSMCWCVNTAGVRRTDKDTEITCSERVRTYWIIIELKHKAREKPYDSKSLRTALQKEITTRYQLDPKFITSILYENNVITIDLVQNSSQKTQNDVDIADVAYYFEKDVKGESLFHSKKMDLTVNGEQLDLDPGQTLIYYVDEKAPEFSMQGLKAGVIAVIVVVVIAVVAGIVVLVISRKKRMAKYEKAEIKEMGEMHRELNA
notes: Endogenous protein of human colon cancer cell lines, immunoprecipitated from lysates; also called epithelial cell adhesion molecule
B2: EpCAM-V5 (full length, expressed in HEK293T cells) (other)
chain: B1 chain
notes: also called exogenous EpCAM; not shown: V5 tag
B3: EpEX-Fc (Fc fusion)
chain: QEECVCENYKLAVNCFVNNNRQCQCTSVGAQNTVICSKLAAKCLVMKAEMNGSKLGRRAKPEGALQNNDGLYDPDCDESGLFKAKQCNGTSMCWCVNTAGVRRTDKDTEITCSERVRTYWIIIELKHKAREKPYDSKSLRTALQKEITTRYQLDPKFITSILYENNVITIDLVQNSSQKTQNDVDIADVAYYFEKDVKGESLFHSKKMDLTVNGEQLDLDPGQTLIYYVDEKAPEFSMQGLK
notes: also called recombinant EpEX-Fc; not shown: Fc
B4: EpEX-His (extracellular domain of EpCAM, His-tagged) (ligand)
chain: B3 chain
notes: It was made in Expi293 cells and purified on Ni-NTA; also called soluble EpEX; secreted EpEX; not shown: His tag
B5: EpEXΔEGFI+II-His (ligand)
chain: QEESKLAAKSERVRTYWIIIELKHKAREKPYDSKSLRTALQKEITTRYQLDPKFITSILYENNVITIDLVQNSSQKTQNDVDIADVAYYFEKDVKGESLFHSKKMDLTVNGEQLDLDPGQTLIYYVDEKAPEFSMQGLK
notes: EpEX lacking aa 27-59 and 66-135; also called EGF like-domain deletion mutant EpEX-His; soluble EpEX mutant protein; not shown: His tag
B6: EpEXΔEGFI+II-Fc (Fc fusion)
chain: B5 chain
notes: EpEX lacking aa 27-59 and 66-135, coated on ELISA plates at 1 µg/ml; also called EpEXΔEGFI+II mutant protein; EGF like-domain deletion mutant-Fc; not shown: Fc
B7: EpCAMΔEGFI+II-V5 (other)
chain: QEESKLAAKSERVRTYWIIIELKHKAREKPYDSKSLRTALQKEITTRYQLDPKFITSILYENNVITIDLVQNSSQKTQNDVDIADVAYYFEKDVKGESLFHSKKMDLTVNGEQLDLDPGQTLIYYVDEKAPEFSMQGLKAGVIAVIVVVVIAVVAGIVVLVISRKKRMAKYEKAEIKEMGEMHRELNA
notes: also called both domain-deleted mutants; not shown: V5 tag
B8: F(ab′)2 of EpAb2-6 (antibody, V domains shown)
VH: VKLQESGPELKKPGETVKISCKASGYTFTDYSMHWVKQAPGKGLKWMGWINTETGEPTYADDFKGRFAFSLETSASTAYLQINNLKNEDTATYFCARTAVYWGQGTTVTVSS
VL: DIQMTQSPSSLSASLGERVSLTCRASQEISVSLSWLQQEPDGTIKRLIYATSTLDSGVPKRFSGSRSGSDYSLTISSLESEDFVDYYCLQYASYPWTFGGGTKLEIKR
notes: F(ab′)2 fragment of mouse EpAb2-6; also called divalent antibody fragments F(ab′)2 of EpAb2-6
B9: F(ab′)2 of EpAb2-6: divalent antibody fragments F(ab′)2 of EpAb2-6 (antibody, V domains shown)
VH: B8 VH
VL: DIQMTQSPSSLSASLGERVSLTCRASQEISVSLSWLQQEPDGTIKRLIYATSTLDSGVPKRFSGSRSGSDYSLTISSLESEDFVDYYCLQYASYPWTFGGGTKLEIKRADAAPTVS
B10: EpAb2-6 (mouse monoclonal IgG) (antibody, V domains shown)
VH: B8 VH
VL: B8 VL
notes: Mouse hybridoma IgG; also called mouse EpAb2-6; mEpAb2-6

Test [1] has as its target T1, endogenous HGFR (HCT116 and HT29 cells) (human, UniProt P08581 25-1390).
T1 construct: whole, on cells; also called c-MET; hepatocyte growth factor receptor
Kind of test: co-IP of endogenous proteins after DTSSP cross-linking, HCT116 and HT29 cells (FIG. 1A).

For test [2], the target named is T2, HGFRECD-c-Myc (extracellular domain of HGFR with c-Myc tag, expressed in HEK293T cells) (UniProt P08581 25-932).
T2 construct: extracellular domain; also called HGFRECD-c-Myc-tag; not shown: c-Myc tag
T2 sequence (P08581 25-932): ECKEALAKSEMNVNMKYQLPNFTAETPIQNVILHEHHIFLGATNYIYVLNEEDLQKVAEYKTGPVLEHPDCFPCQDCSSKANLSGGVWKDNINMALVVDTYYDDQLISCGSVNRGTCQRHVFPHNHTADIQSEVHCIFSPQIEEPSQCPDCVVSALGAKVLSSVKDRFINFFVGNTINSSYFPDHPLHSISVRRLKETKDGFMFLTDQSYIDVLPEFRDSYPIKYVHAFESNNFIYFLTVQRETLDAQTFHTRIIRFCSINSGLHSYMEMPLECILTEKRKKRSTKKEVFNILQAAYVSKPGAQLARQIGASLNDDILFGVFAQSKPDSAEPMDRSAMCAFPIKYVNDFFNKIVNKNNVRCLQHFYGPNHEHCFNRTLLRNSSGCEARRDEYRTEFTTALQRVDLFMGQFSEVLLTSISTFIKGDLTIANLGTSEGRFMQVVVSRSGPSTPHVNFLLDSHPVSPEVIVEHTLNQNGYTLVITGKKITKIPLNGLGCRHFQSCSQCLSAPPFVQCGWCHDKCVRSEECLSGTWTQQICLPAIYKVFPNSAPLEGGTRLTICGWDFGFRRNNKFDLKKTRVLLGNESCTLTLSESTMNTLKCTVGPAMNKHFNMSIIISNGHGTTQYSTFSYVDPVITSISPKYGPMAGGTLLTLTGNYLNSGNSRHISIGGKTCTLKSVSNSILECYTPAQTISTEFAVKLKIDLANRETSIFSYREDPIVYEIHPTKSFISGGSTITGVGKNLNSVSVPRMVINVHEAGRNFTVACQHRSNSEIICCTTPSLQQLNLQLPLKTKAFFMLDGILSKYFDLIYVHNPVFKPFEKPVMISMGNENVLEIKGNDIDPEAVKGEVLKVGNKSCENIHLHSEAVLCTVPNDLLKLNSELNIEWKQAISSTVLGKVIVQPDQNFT
The test can be described thus: co-IP from HEK293T cells overexpressing EpCAM-V5 and HGFRECD-c-Myc (FIG. 1B).

Test [3] addresses T3, HGFR-His recombinant protein (human, UniProt P08581 25-932).
T3 construct: extracellular domain; also called HGFRECD-His recombinant protein; not shown: His tag
Kind of test: ELISA, HGFR-His (2 µg/ml) on coated EpEX-Fc proteins (1 µg/ml) (FIG. 1H). (In general: An ELISA detects its analyte on a solid surface through an enzyme-linked reagent.)

Test [4] deals with T2, HGFRECD-c-Myc (extracellular domain of …). The test can be described thus: co-IP from transfected HEK293T cells (restated).
Test [5] deals with T4, HGFR-Fc protein (human, UniProt P08581 25-932).
T4 construct: not shown: Fc
T4 sequence (P08581 25-932): as above
Kind of test: ELISA, EpEX-His (2 µg/ml) on coated HGFR-Fc (1 µg/ml) (FIG. 6F).

Test [6] deals with T2, HGFRECD-c-Myc (extracellular domain of …). Kind of test: co-IP with anti-c-Myc from transfected HEK293T cells, Western blotting (FIG. 1G). (In general: In western blotting, separated proteins are transferred to a membrane and probed.)
The target in test [7] is T3, HGFR-His recombinant protein. The test can be described thus: ELISA, HGFR-His added to plates coated with mutant-Fc (1 µg/ml) (FIG. 1H).
The target of test [8] is T2, HGFRECD-c-Myc (extracellular domain of …). The test can be described thus: co-IP from transfected HEK293T cells, Western blotting (FIG. 1F).
Test [9] concerns the target B4. The test can be described thus: ELISA on coated EpEX-His (1 µg/ml) (FIG. 7A).
The subject of test [10] is HCT116 cells. Kind of test: Apoptosis assay, annexin V-FITC/PI double labeling, HCT116. It counts as cell-based, human. The settings on record: 100 μg/ml 24 h, FIG. 7B. How it is done:
(§1) FIGS. 7A to 7G. EpAb2-6 binds EpEX and induces apoptosis by F(ab′)2 and inhibits regulated intramembrane proteolysis (RIP) activation and HGFR signaling. (FIG. 7A) Binding affinity of IgG EpAb2-6 (mouse) and F(ab′)2 to EpEX-His (1 μg/ml) coated overnight was checked using ELISA (OD450). (FIG. 7B) HCT116 cells were treated with 100 μg/ml control IgG, Fc, or F(ab′)2 of EpAb2-6 for 24 h. The apoptotic and necrotic cells were quantified by fluorescein annexin V-FITC/PI double labeling. (FIG. 7C) HCT116 and HT29 cells were treated with 10 μg/ml control IgG, MT201, humanized EpAb2-6 (hEpAb2-6) or mouse hybridoma EbAb2-6 (mEpAb2-6) for 24 h. The apoptotic and necrotic cells were quantified by fluorescein annexin V-FITC/PI double labeling. (FIG. 7D) HCT116 cells were treated with 10 μg/ml control IgG, MT201, hEpAb2-6 or mEpAb2-6 for 16 h, followed by treatment with EpEX-His (50 nM) for 15 min. Levels of phosphorylated HGFR, AKT, and ERK, and (FIG. 7E) RIP proteins ADAM17 and presenilin 2 were examined by Western blotting. Anti-EpCAM antibody and crizotinib coordinately induces apoptosis in colon cancer cells. (FIG. 7F) HCT116 and HT29 cells were treated with 10 μg/ml NMIgG or EpAb2-6 and 4 μM HGFR inhibitor crizotinib for 24 h. The apoptotic and necrotic cells were quantified by fluorescein annexin V-FITC/PI double labeling. (FIG. 7G) HCT116 and HT29 cells were treated with 10 μg/ml NMIgG or EpAb2-6 and 10 μM HGFR inhibitor crizotinib. Cell invasion was assessed by a Transwell assay with matrigel after 24 h.
Cells were seeded and treated with 10 μg/ml mAb or inhibitor for 6 h; an unrelated mouse myeloma immunoglobulin used at appropriate dilution served as the IgG2a (Invitrogen #02-6200) isotype control. Apoptotic cells were detected using Annexin V-FITC and PI, and were analyzed using a flow cytometer (BD Immmunocytometry Systems). Early apoptosis was measured with the Annexin V-FITC Apoptosis Detection kit II (BD Pharmingen). Late apoptotic nuclei were detected with propidium iodide (PI) staining.

The target of test [11] is T5, EpEX-His (Homo sapiens, UniProt P16422).
T5 construct: the soluble extracellular domain of EpCAM (EpEX); His; made in house; host or cells: Expi293
T5 sequence (P16422 24-265 limits assumed): B3 chain
The test can be described thus: ELISA binding to coated EpEX-His. Conditions: EpEX-His 1 μg/ml coated; ELISA OD450; FIG. 7A. How it is done: as §1, with “(FIG. 7G) HCT116 and HT29 cells were treated with 10 μg/ml NMIgG or EpAb2-6 and 10 μM HGFR inhibitor crizotinib.” left out

The target in test [12] is B2. The test can be described thus: Western blotting, flow cytometry and immunofluorescence on transfected HEK293T cells (title of the legend, FIG. 8A-8C).
The target of test [13] is B4. Kind of test: ELISA on coated EpEX-His (1 µg/ml) (title of the legend, FIG. 7A).
In test [14] the target is T6, EpCAM wild-type (expressed in HEK293T cells, FIG. 8D-8G) (human, UniProt P16422 24-314).
T6 sequence: B1 chain
Kind of test: immunofluorescence, flow cytometry and cellular ELISA on transfected HEK293T cells (FIG. 8E-8G). (In flow cytometry, cells or beads pass a laser one at a time.)

T3 sequence (P08581 25-932): as above
T1 sequence (P08581 25-1390): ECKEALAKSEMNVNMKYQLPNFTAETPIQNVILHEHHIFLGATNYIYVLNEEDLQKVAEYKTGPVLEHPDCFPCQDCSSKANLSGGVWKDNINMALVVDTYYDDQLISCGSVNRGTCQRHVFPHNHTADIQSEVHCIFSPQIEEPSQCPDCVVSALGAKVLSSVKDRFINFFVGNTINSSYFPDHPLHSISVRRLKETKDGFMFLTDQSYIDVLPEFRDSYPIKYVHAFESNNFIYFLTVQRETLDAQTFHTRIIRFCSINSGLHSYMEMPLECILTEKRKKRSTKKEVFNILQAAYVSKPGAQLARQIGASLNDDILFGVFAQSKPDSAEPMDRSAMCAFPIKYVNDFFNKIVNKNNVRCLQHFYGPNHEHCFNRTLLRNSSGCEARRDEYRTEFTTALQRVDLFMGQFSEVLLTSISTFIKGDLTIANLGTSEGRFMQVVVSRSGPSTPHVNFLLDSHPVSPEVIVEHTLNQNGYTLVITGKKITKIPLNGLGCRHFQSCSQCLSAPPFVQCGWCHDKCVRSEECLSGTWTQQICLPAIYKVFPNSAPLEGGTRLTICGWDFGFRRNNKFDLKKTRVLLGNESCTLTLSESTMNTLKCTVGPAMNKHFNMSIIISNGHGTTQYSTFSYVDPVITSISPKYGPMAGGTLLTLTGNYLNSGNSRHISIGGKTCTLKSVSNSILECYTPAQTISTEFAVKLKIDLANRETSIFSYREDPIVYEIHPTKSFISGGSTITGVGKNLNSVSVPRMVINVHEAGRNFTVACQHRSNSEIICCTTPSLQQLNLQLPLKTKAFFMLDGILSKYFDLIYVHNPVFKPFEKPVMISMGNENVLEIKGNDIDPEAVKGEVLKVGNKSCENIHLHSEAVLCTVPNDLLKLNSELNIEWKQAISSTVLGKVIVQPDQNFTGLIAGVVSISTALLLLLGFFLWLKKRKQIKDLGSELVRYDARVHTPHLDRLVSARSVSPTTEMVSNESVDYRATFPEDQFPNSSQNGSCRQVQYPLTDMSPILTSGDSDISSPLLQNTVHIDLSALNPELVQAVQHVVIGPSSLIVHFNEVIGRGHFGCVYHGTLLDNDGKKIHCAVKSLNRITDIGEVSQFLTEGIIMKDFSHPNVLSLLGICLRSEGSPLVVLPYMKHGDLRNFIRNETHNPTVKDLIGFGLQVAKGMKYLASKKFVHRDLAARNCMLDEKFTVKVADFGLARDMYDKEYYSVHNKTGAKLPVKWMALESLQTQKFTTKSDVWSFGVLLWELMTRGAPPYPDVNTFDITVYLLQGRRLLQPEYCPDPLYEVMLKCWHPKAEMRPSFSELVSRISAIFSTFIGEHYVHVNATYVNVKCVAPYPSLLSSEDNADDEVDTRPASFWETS

B1: the binding result in test [1] is given as “binds”.

For the molecule B2, the binding result in [2] is on record as “binds”.

As for B3, the binding result in [3] is on record as “binds”.

B4: the binding result in test [4] and in test [5] was “binds” in each case.

Consider B5, for which the binding result in test [6] is on record as “no binding”.

As to B6, the binding result in test [7] is “no binding (tested: 2 µg/ml)”.

B7: the binding result in [8] is “no binding”.

For the molecule B8, in [9], the binding result is recorded as “binds”.

As for B9, the apoptosis result in test [10] is recorded as “induce apoptosis in colon cancer cells”. For the same molecule, the “binding to EpEX” value in [11] is “bind to EpEX”.

As for B10, the binding result in test [12], in test [13] and in test [14] was “binds” each time.
